Target: T1, CsrA-Strep (Campylobacter jejuni NCTC11168) (UniProt Q0P9F1)
T1 sequence: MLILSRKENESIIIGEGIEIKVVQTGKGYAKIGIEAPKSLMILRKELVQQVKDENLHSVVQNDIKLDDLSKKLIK
Test: EMSA

Row | Substance | binding
1 | GGAAAUUAAAAUUUUAAAAAGGAAGUUAAAAUGUCAAAACCAUUAAAUGAAGAGAUUUUUGUUGAAUUUAAAAGUGAUCUAGCUGAAAGAAAAAAUGAAGUUUUGCUUCAAGUUUUAGA [Cj0040 mRNA] | binds
2 | GGAUUAUAACUAAGAUCAAGGAGGCAGAAAUGAUCAAUCCUAUACAACAAAGUUAUGUGGCAAAUACCGCAUUAAAUACAAAUAGAAUAGAUAAAG [flgM mRNA] | binds

Tested on: CsrA-Strep (Campylobacter jejuni NCTC11168)
Test: EMSA

Row | Substance | Kd
3 | flaB leader | > 350 nM
4 | flaA WT leader | 50 nM
5 | flaG leader | > 350 nM
6 | flgI leader | > 350 nM

From publication PMC4894983
